Patent US20230270828A1, “COMPOSITION FOR USE IN THE TREATMENT OF VIRAL INFECTIONS” (BICT S.R.L., priority 2020, published 2023)
Read-outs that look alike come from different tables or passages of the source. Marks after values point to notes of the source that are not given here.

Experiments:
SARS-CoV-2 = assay type: cell-based
[1] = tested on: Vero cells (Monkey Kidney Epithelial Cells); conditions: Vero cells

B1: lactoferrin (protein, UniProt P24627 20-708, looked up)
Lactotransferrin: APRKNVRWCTISQPEWFKCRRWQWRMKKLGAPSITCVRRAFALECIRAIAEKKADAVTLDGGMVFEAGRDPYKLRPVAAEIYGTKESPQTHYYAVAVVKKGSNFQLDQLQGRKSCHTGLGRSAGWIIPMGILRPYLSWTESLEPLQGAVAKFFSASCVPCIDRQAYPNLCQLCKGEGENQCACSSREPYFGYSGAFKCLQDGAGDVAFVKETTVFENLPEKADRDQYELLCLNNSRAPVDAFKECHLAQVPSHAVVARSVDGKEDLIWKLLSKAQEKFGKNKSRSFQLFGSPPGQRDLLFKDSALGFLRIPSKVDSALYLGSRYLTTLKNLRETAEEVKARYTRVVWCAVGPEEQKKCQQWSQQSGQNVTCATASTTDDCIVLVLKGEADALNLDGGYIYTAGKCGLVPVLAENRKSSKHSSLDCVLRPTEGYLAVAVVKKANEGLTWNSLKDKKSCHTAVDRTAGWNIPMGLIVNQTGSCAFDEFFSQSCAPGADPKSRLCALCAGDDQGLDKCVPNSKEKYYGYTGAFRCLAEDVGDVAFVKNDTVWENTNGESTADWAKNLNREDFRLLCLDGTRKPVTEAQSCHLAVAPNHAVVSRSDRAAHVKQVLLHQQALFGKNGKNCPDKFCLFKSETKNLLFNDNTECLAKLGGRPTYEEYLGTEYVTAIANLKKCSTSPLLEACAFLTR
notes: multifunctional globular protein of the transferrin family, 80 KDa
In the case of B1, the “Mean ΔCt” value (SARS-CoV-2; 0.59 mg/ml, scheme A (preincubation of virus with compound)) is reported as 0.23, the “Mean ΔCt” value (SARS-CoV-2; 0.59 mg/ml, scheme B+C (during and after inoculum)) is reported as 0.04 and the “Mean ΔCt” value (SARS-CoV-2; 0.59 mg/ml, scheme B+C+D (during, after inoculum and repeated)) is reported as −0.25. For the same molecule, the “Mean ΔCt” value (SARS-CoV-2; 1.17 mg/ml, scheme A (preincubation of virus with compound)) was 0.76, the “Mean ΔCt” value (SARS-CoV-2; 1.17 mg/ml, scheme B+C (during and after inoculum)) was −0.08 and the “Mean ΔCt” value (SARS-CoV-2; 1.17 mg/ml, scheme B+C+D (during, after inoculum and repeated)) was −0.21. For the same molecule, the “Mean ΔCt” value (SARS-CoV-2; 2.34 mg/ml, scheme A (preincubation of virus with compound)) was 0.42, the “Mean ΔCt” value (SARS-CoV-2; 2.34 mg/ml, scheme B+C (during and after inoculum)) was −0.28 and the “Mean ΔCt” value (SARS-CoV-2; 2.34 mg/ml, scheme B+C+D (during, after inoculum and repeated)) was −0.47. For the same molecule, the “Mean ΔCt” value (SARS-CoV-2; 4.68 mg/ml, scheme A (preincubation of virus with compound)) was 0.25, the “Mean ΔCt” value (SARS-CoV-2; 4.68 mg/ml, scheme B+C (during and after inoculum)) was −1.52 and the “Mean ΔCt” value (SARS-CoV-2; 4.68 mg/ml, scheme B+C+D (during, after inoculum and repeated)) was −2.47. For the same molecule, the CC10 ([1]; 72 h, MTT) was >4.68§ mg/ml, the CC50 ([1]; 72 h, MTT) was >4.68§ mg/ml and the “maximum nontoxic concentration (assumed)” value ([1]; based on CC50/CC10 data) was 4.68 mg/mL.
